Measured values reported in article doi:10.1101/2025.11.18.25340485 (medRxiv, 2025).

Molecular target: T1, WT-RBD (receptor-binding domain of the SARS-CoV-2 wild-type, Wuhan-Hu-1, spike protein) (SARS-CoV-2, UniProt P0DTC2)
T1 construct: not shown: His6, C-terminal, kept
Test: BLI
Conditions: both partners purified

B1: CC25.4 Fab (Fab, V domains shown)
VH: QVQLVQSGAEVKKPGASVKVSCKASGYTFTDYFLHWVRQAPGQGLEWMGWINPDSGGTNYAQRFQGRVTMTRDTSISTAYMEVSRLRSDDTAVYYCARDNERYQMQNYYHYYGMDVWGQGTTVTVVS
VL: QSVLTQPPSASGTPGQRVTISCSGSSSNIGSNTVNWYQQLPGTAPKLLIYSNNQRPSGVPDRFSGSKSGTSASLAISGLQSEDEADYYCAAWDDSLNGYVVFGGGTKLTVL
notes: also called class V antibody; source: ExpiCHO cells, co-transfected, purified (CaptureSelect CH1-XL, SEC)
Kd: 0.4 nM
